Assay [1] concerns the target HBsAg AY serotype (Hepatitis B virus). The assay is described as follows: SPR epitope binning; competitor (1st, saturating Ab): NOV3842.
Assay [2] deals with HBsAg AD serotype (Hepatitis B virus). Described as above.
The target in assay [3] is HBsAg AY serotype (Hepatitis B virus). The assay is described as follows: SPR epitope binning; competitor (1st, saturating Ab): NOV3841.
Assay [4] concerns the target HBsAg AD serotype (Hepatitis B virus). Described as above.
Assay [5] deals with HBsAg AY serotype (Hepatitis B virus). The assay is described as follows: SPR epitope binning; competitor (1st, saturating Ab): NOV3540.
In assay [6] the target is HBsAg AD serotype (Hepatitis B virus). The assay is described as above.
Assay [7] deals with HBsAg AY serotype (Hepatitis B virus). The experiment in a line: SPR epitope binning; competitor (1st, saturating Ab): CR8087.
Assay [8] concerns the target HBsAg AD serotype (Hepatitis B virus). Described as above.
Assay [9] has as its target HBsAg AY serotype (Hepatitis B virus). The assay is described as follows: SPR epitope binning; competitor (1st, saturating Ab): HBC34 (self).
The target of assay [10] is HBsAg AD serotype (Hepatitis B virus). Described as above.
Assay [11] concerns the target HBsAg AY serotype (Hepatitis B virus). The experiment in a line: SPR epitope binning; competitor (1st, saturating Ab): NOV3832.
Assay [12] has as its target HBsAg AD serotype (Hepatitis B virus). The assay is described as above.
For assay [13], the target named is HBsAg of HBV genotype D, serotype ayw (Hepatitis B virus). The experiment in a line: cell-based or functional assay.

Some results are limits rather than exact numbers.

Consider HBC34 (antibody), for which the binding of second antibody (% of its binding as first antibody) in assay [1] was 134; in [2] it was 121; in [3], 151; in [4], 124; in assay [5], 131; in [6], 121. Moreover, the binding of second antibody (% of its binding as first antibody) in assay [7] came out at 166; in [8], 146; in assay [9], 0; in [10], 0; in assay [11], 257; in [12], 126.

On to Neg. Control (antibody), for which the Virus neutralization EC50 in assay [13] was over 0.5 µM.
